Values joined by “and” are separate entries in the source; they are usually repeats but may differ in a detail not shown here. Identical values can stand only once.
Assays:
[1] = biological target: T1, human recombinant HER3 Extracellular Domain (HER3 ECD) (human, UniProt P21860 20-643); assay: SPR Biacore T100, antibody captured, 25 C, Langmuir fit
T1 construct: 68 kDa; also called human-Her3-ECD
Experimental: (§1) A CM5 series sensor was mounted into the system and was normalized in HBS-ET buffer (10 mM HEPES pH 7.4, 150 mM NaCl, 3 mM EDTA, 0.005% w/v Tween 20) according to the manufacturer's instructions. The sample buffer was the system buffer supplemented with 1 mg/ml CMD (Carboxymethyldextran, Sigma #86524). The system operated at 25° C. 6500 RU RAM-Fcγ (relative units of Fcγ-fragment RamlgG, GE Healthcare) were immobilized according to the manufacturer's instructions using EDC/NHS chemistry on all four flow cells. The sensor was deactivated using 1M ethanolamine.
(§2) Analytes in solution were injected at different concentration steps of 0 nM, 1.1 nM, 3.7 nM, 11.1 nM, 33.1 nM and 90 nM for 3.5 min. The dissociation was monitored for 15 min. Where possible, kinetic signatures were evaluated according to a Langmuir fit.

[2] = biological target: T2, recombinant Thermus thermophilus SlyD FKBP-Her3 (TtSlyD-FKBP-Her3); assay: as above
T2 construct: expressed in E. coli, the N-terminal methionine can be present or not; also called thermo SlyD-Her3; T.T.SlyD-Her3
T2 chain: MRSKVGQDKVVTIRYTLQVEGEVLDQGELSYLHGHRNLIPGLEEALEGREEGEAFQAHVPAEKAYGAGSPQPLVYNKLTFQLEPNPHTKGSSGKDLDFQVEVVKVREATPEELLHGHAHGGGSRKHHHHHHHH
Experimental: as §1, §2

[3] = biological target: T3, HER3 ECD-HRG complex (Heregulin-activated Her-3 ECD) (human, UniProt P21860 20-643); assay: SPR Biacore 3000, antibody captured, Biacore two-state model, ka1, 25 C; ka1, first step of the two-state fit
T3 construct: receptor-ligand complex made by preincubating HER3 ECD with a five-fold molar excess of Heregulin; also called Heregulin/Her-3 ECD; Heregulin-complexed Her-3 ECD
Experimental: as §1, with “(Carboxymethyldextran).” for “(Carboxymethyldextran, Sigma #86524).”, “10000” for “6500”, “RAM-Fey” for “RAM-Fcγ”, “Fey-fragment Rabbit Anti-Mouse IgG/Jackson Laboratories)” for “Fcγ-fragment RamlgG, GE Healthcare)”, “all” for “all four”

SBP-tagged HER3-ECD = biological target: T4, SBP-tagged HER3-ECD (human, UniProt P21860 20-643); assay: plate assay: SBP-tagged HER3-ECD on streptavidin plate, antibody titrated, 10 nM Europium-labeled Heregulin-beta detected by time-resolved fluorescence; half-maximal rise of the Heregulin signal
T4 construct: not shown: SBP tag
Experimental: On the next day the wells were washed three times with washing buffer (PBS+0.05% Tween-20) and blocked with PBS containing 1% BSA for one hour. After another three washes with washing buffer, 40 μl antibody solution (in Delfia Binding Buffer) was added to each well as a 2× stock of the desired final concentrations (10⁻³ to 10³ nM, alternatively 10⁻⁴ to 10² nM). Immediately […] of 20 nM Europium-labeled Heregulin-beta (PeproTech, Cat. #100-03) was added to achieve a final concentration of 10 nM. The plates were incubated on a shaker at room temperature for two hours. Following three washes with Delfia Wash Buffer, Delfia Enhancement Solution was added and incubated on a shaker for 15 minutes (light protected). Finally, the plates were measured in a Tecan Infinite F200 reader using a time-resolved fluorescence measurement protocol.

TtSlyD-Wildtype = biological target: T5, TtSlyD-Wildtype; assay: SPR, antibody captured, 25 C
T5 construct: scaffold without insert; N-terminal methionine can be present or not; also called T.T.SlyD-wt; wild type Thermus thermophilus SlyD protein
T5 chain: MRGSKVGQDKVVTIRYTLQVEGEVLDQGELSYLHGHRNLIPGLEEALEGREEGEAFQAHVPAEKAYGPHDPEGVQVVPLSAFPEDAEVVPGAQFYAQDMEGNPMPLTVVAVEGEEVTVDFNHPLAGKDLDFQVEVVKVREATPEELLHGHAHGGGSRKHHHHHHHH

TtSlyDcys-Her3 = biological target: T6, TtSlyDcys-Her3; assay: SPR Biacore T200, antibody captured, 25 C
T6 chain: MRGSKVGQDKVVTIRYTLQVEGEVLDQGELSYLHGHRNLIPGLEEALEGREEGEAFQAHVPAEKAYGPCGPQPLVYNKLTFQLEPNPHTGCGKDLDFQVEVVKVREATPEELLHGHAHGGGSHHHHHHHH
Experimental: A Biacore T200 instrument (GE Healthcare) was mounted with a CM5 series sensor. The sensor was normalized in HBS-ET buffer (10 mM HEPES pH 7.4, 150 mM NaCl, 3 mM EDTA, 0.05% w/v Tween 20) according to the manufacturer's instructions. The sample buffer was the system buffer supplemented with 1 mg/ml CMD (Carboxymethyldextran, Sigma #86524). The system operated at 25° C. 6500 RU RAM-Fcγ (relative units of Fcγ-fragment RamlgG, GE Healthcare) were immobilized according to the manufacturer's instructions using amine coupling EDC/NHS chemistry on all four flow cells. The sensor was deactivated using 1M ethanolamine. […] Concentration dependent kinetics were measured. […] All analytes were injected for 5 min association time and 10 min dissociation time at 100 μl/min flow rate. The sensor capture system was regenerated by a 3 min injection at 10 μl/min of 10 mM glycine pH 1.7. Where possible kinetic data was evaluated using the Biacore T200 evaluation software.

B1: anti-HER3 antibody M-08-11 (antibody, V domains shown)
VH: QAYLQQSGAELMRPGASVRMSCQASGYTFTSYTIHWLKQTPRQGLEWIGAIYPRNGDFSYNQKFKDKASLTVDTSSSTAYMHLSSLTSEDSAVYFCARTINYGDWFAYWGQGTLVTVSA
VL: DIQMIQSPASLFVSEGETVIITCRASENIYSNLAWYHQKKGKSPQVLVYAAIKLADGVPLRFSGSGSGTQFSLKINSLQSEDFGSYYCQHFWGPPYTFGSGTNLEIK
notes: mouse monoclonal antibody from hybridoma, tested as hybridoma supernatant or as antibody; also called M-011
- Kd [1]: 1.08 nM and 1 nM
- koff [1]: 5.32e-05 s⁻¹
- kon [1]: 49300 M⁻¹ s⁻¹
- Kd [2]: 1.6 nM and 2 nM
- koff [2]: 0.00014 s⁻¹
- kon [2]: 87000 M⁻¹ s⁻¹
- kon [3]: 45800 M⁻¹ s⁻¹
- EC50 (read off the curve) (SBP-tagged HER3-ECD): ~7 nM

B2: anti-HER3 antibody M-46-01 (antibody, V domains shown)
VH: QIQLQQSGPQLVRPGASVKISCKASGYSFTSYWMHWVKQRPGRGLEWIGMIDPSDGVTRLNQKFKDKATLTVDNSSSTAYMQLSSPTSEDSAVHYCARVDVLYWYFDVWGAGTTVTVSS
VL: DIVLTQSPASLAVSLGQRATISCRASKSISISGYSYMHWYQQKAGQPPKLLIYLTSNLESGVPARFSGSGSGTDFTLNIHPVEEEDAATYYCHHSRELPFTFGSGTKLEIK
notes: mouse hybridoma clone
- EC50 (read off the curve) (SBP-tagged HER3-ECD): ~2 nM
- binding result (TtSlyD-Wildtype): no binding

B3: anti-HER3 antibody M-43-01 (antibody, V domains shown)
VH: EVQLQQSGTVLARPGASVKMSCKASDYTFSNYWVHWVKQRPGQGLEWIGAIYPGNGDSTYYQKFKGKATLTAVTSTSTAYMDLSSLTNGDSAVYFCTRSGVGYNYYFDYWGQGTTLTVSS
VL: DIQMTQSPASLSASVGETVTITCRASENIYSNLAWYQQKQGKSPQLLVYIATNLADGVPSRFSGSGSGTQFSLKINSLQPEDLGSYYCQHFYGTPFTFGTGTKLEIE
notes: mouse hybridoma clone
- binding result (TtSlyD-Wildtype): no binding
- Kd (TtSlyDcys-Her3): 2.9 nM
- MR (Molar Ratio) (TtSlyDcys-Her3): 1.7
- koff (TtSlyDcys-Her3): 0.00016 s⁻¹
- kon (TtSlyDcys-Her3): 54000 M⁻¹ s⁻¹

Reference: patent US20180094062A1 (Hoffmann-La Roche, published 2018)
